Consider 37 sequences from the supplement of paper PMC7877785.

This data set in a line: self-splicing fitness, log relative to wild type (ln ratio); higher = more splicing; Tetrahymena group I intron in knt gene, E. coli kanamycin selection, DiMSum; sequences stand for … in CUCUCU…GGAGGGAAAAGUUAUCAGGCAUGCACCUGGUAGCUAGUCUUUAAACCAAUAGAUUGCAUCGGUUUAAAAGGCAAGACCGUCAAAUUGCGGGAAAGGGGUCAACAGCCGUUCAGUACCAAGUCUCAGGGGAAACUUUGAGAUGGCCUUGCAAAGGGUAUGGUAAUAAGCUGACGGACAUGGUCCUAACCACGCAGCCAAGUCCUAAGUCAACAGAUCUUCUGUUGAUAUGGAUGCAGUUCACAGACUAAAUGUCGGUCGGGGAAGAUGUAUUCUUCUCAUAAGAUAUAGUCGGACCUCUCCUUAAUGGGAGCUAGCGGAUGAAGUGAUGCAACACUGGAGCCGCUGGGAACUAAUUUGUAUGCGAAAGUAUAUUGAUUAGUUUUGGAGUACUCGUGGUCG
The essentials: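 Pooled colonies went to amplicon sequencing on an Illumina HiSeq 2500 after six replicate transformations. The plates were LB agar with 100 μg/mL carbenicillin, 50 μM IPTG and 0.2% rhamnose, with or without 25 μg/mL kanamycin, incubated overnight at 37°C or 30°C. The E. coli BL21(DE3) library had all eight P1ex-region intron nucleotides randomised, the intron placed in the knt kanamycin-resistance gene on pET-22b(+). DiMSum fitness is the error-weighted combination of replicate fold changes, kanamycin against none, normalised to wild type.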

± gives the uncertainty stated by the source.

In the case of ACACAGCAAUAUUACGCCCC, the “self-splicing fitness (ln)” value is, setting by setting: (30 °C) -1.66 ± 0.14; (37 °C) -0.901 ± 0.15.

As for AAGUAGCAAUAUUACGCAUG, the “self-splicing fitness (ln)” value is -2.05 ± 0.069 (30 °C) and -0.492 ± 0.074 (37 °C).

For the sequence UAUGAGCAAUAUUACGUGUG, the “self-splicing fitness (ln)” value is -2.41 ± 0.097 (30 °C) and -1.1 ± 0.085 (37 °C).

As for UUCCAGCAAUAUUACGAGCA, the “self-splicing fitness (ln)” value is, setting by setting: (30 °C) -1.08 ± 0.098; (37 °C) -0.767 ± 0.13.

On to CGGUAGCAAUAUUACGCGUU, for which the “self-splicing fitness (ln)” value is -3.55 ± 0.31 (30 °C) and -2.13 ± 0.21 (37 °C).

Turning to AGUCAGCAAUAUUACGUAGU, the “self-splicing fitness (ln)” value reads like this: (30 °C) -1.21 ± 0.077; (37 °C) -0.268 ± 0.12.

In the case of GUGAAGCAAUAUUACGACCG, the “self-splicing fitness (ln)” value is -1.63 ± 0.23 (30 °C) and 0.706 ± 0.28 (37 °C).

With CCGGAGCAAUAUUACGGAUA, the “self-splicing fitness (ln)” value reads like this: (30 °C) -2.42 ± 0.2; (37 °C) -1.18 ± 0.23.

In the case of UUACAGCAAUAUUACGCCUG, the “self-splicing fitness (ln)” value is, setting by setting: (30 °C) -0.557 ± 0.054; (37 °C) 0.0548 ± 0.081.

For the sequence GUCAAGCAAUAUUACGGGGG, the “self-splicing fitness (ln)” value runs as follows: (30 °C) -4.02 ± 0.46; (37 °C) -2.86 ± 0.34.

For the sequence CAUCAGCAAUAUUACGUCCC, the “self-splicing fitness (ln)” value by setting is: (30 °C) -2.53 ± 0.31; (37 °C) -1.39 ± 0.27.

In the case of AACGAGCAAUAUUACGAAGU, the “self-splicing fitness (ln)” value (30 °C) was -2.75 ± 0.17 and the “self-splicing fitness (ln)” value (37 °C) was -2.86 ± 0.31.

Regarding AUCCAGCAAUAUUACGGGAC, the “self-splicing fitness (ln)” value (30 °C) was -4.17 ± 0.27 and the “self-splicing fitness (ln)” value (37 °C) was -3.04 ± 0.2.

UUAGAGCAAUAUUACGGUUC: where the note is “30 °C”, the “self-splicing fitness (ln)” value was -2.42 ± 0.4.

On to UCCAAGCAAUAUUACGCCAA, for which the “self-splicing fitness (ln)” value is, setting by setting: (30 °C) -2.68 ± 0.21; (37 °C) -0.487 ± 0.22.

Turning to UCACAGCAAUAUUACGAGUA, the “self-splicing fitness (ln)” value by setting is: (30 °C) -2.02 ± 0.1; (37 °C) -1.52 ± 0.085.

Turning to ACCAAGCAAUAUUACGACCG, the “self-splicing fitness (ln)” value is -1.17 ± 0.096 (30 °C) and -0.119 ± 0.12 (37 °C).

With GCCGAGCAAUAUUACGUUGA, the “self-splicing fitness (ln)” value by setting is: (30 °C) -3 ± 0.16; (37 °C) -2.88 ± 0.2.

GCGUAGCAAUAUUACGUCCG: the “self-splicing fitness (ln)” value was -2.52 ± 0.26 (30 °C) and -1.48 ± 0.21 (37 °C).

Regarding CACGAGCAAUAUUACGUAGA, the “self-splicing fitness (ln)” value by setting is: (30 °C) -2.34 ± 0.095; (37 °C) -3.42 ± 0.29.

For CUAUAGCAAUAUUACGCGGG, the “self-splicing fitness (ln)” value (30 °C) was -3.11 ± 0.28 and the “self-splicing fitness (ln)” value (37 °C) was -2.88 ± 0.31.

Consider AACAAGCAAUAUUACGAAGC, for which the “self-splicing fitness (ln)” value was -3.15 ± 0.27 (30 °C) and -2.83 ± 0.38 (37 °C).

As to GGCGAGCAAUAUUACGGGUG, the “self-splicing fitness (ln)” value by setting is: (30 °C) -2.31 ± 0.12; (37 °C) -1.96 ± 0.14.

Turning to CAUGAGCAAUAUUACGCUCU, the “self-splicing fitness (ln)” value by setting is: (30 °C) -3.71 ± 0.49; (37 °C) -2.82 ± 0.31.

For the sequence CUAAAGCAAUAUUACGCGUC, the “self-splicing fitness (ln)” value was -3.94 ± 0.31 (30 °C) and -2.17 ± 0.25 (37 °C).

As to AAAUAGCAAUAUUACGUAUC, the “self-splicing fitness (ln)” value (30 °C) was -3.12 ± 0.28 and the “self-splicing fitness (ln)” value (37 °C) is -1.51 ± 0.19.

For the sequence ACGUAGCAAUAUUACGACAG, the “self-splicing fitness (ln)” value was -2.56 ± 0.13 (30 °C) and -0.828 ± 0.13 (37 °C).

As for ACCCAGCAAUAUUACGUAUG, the “self-splicing fitness (ln)” value runs as follows: (30 °C) -3.89 ± 0.14; (37 °C) -1.77 ± 0.11.

AAGUAGCAAUAUUACGUGUU: the “self-splicing fitness (ln)” value was -2.27 ± 0.093 (30 °C) and -1.2 ± 0.095 (37 °C).

Consider AUUUAGCAAUAUUACGUAGG, for which the “self-splicing fitness (ln)” value was -2.98 ± 0.14 (30 °C) and -2.02 ± 0.16 (37 °C).

As for CGCAAGCAAUAUUACGGUGG, the “self-splicing fitness (ln)” value runs as follows: (30 °C) -0.599 ± 0.064; (37 °C) -0.2 ± 0.079.

As to UUAAAGCAAUAUUACGUUGC, the “self-splicing fitness (ln)” value is -3.24 ± 0.28 (30 °C) and -2.66 ± 0.3 (37 °C).

In the case of CGUGAGCAAUAUUACGUGUU, the “self-splicing fitness (ln)” value is, setting by setting: (30 °C) -3.22 ± 0.3; (37 °C) -2.86 ± 0.32.

As to CUCCAGCAAUAUUACGCCAU, the “self-splicing fitness (ln)” value runs as follows: (30 °C) -3.28 ± 0.31; (37 °C) -2.34 ± 0.25.

In the case of AGGCAGCAAUAUUACGAAAC, the “self-splicing fitness (ln)” value is -3.58 ± 0.22 (30 °C) and -1.8 ± 0.19 (37 °C).

With GAAAAGCAAUAUUACGCACA, the “self-splicing fitness (ln)” value reads like this: (30 °C) -0.807 ± 0.093; (37 °C) -0.0907 ± 0.14.

Take GAUUAGCAAUAUUACGCUUU: the “self-splicing fitness (ln)” value is, setting by setting: (30 °C) -2.1 ± 0.46; (37 °C) -1.9 ± 0.33.
